Experimental data: article PMC4239116, “Crystal Structure of Cytomegalovirus IE1 Protein Reveals Targeting of TRIM Family Member PML via Coiled-Coil Interactions” (PLoS Pathogens, 2014)

Tests used:
[1] = target: rhIE1(36-395), core domain of rhesus cytomegalovirus IE1, lysine-methylated (rhesus cytomegalovirus (rhesus macaque CMV)); experiment: crystal structure; rhIE1(36-395), lysine-methylated; hanging drop, 0.4 M magnesium formate, 15% (w/v) PEG 3350; monoclinic P2_1 crystals and, after controlled dehydration, tetragonal P4_3 crystals (2.3 Å)
[2] = target: the molecule itself; experiment: SEC; Superdex 200 prepgrade; 25 mM Tris, 150 mM NaCl, 10 mM DTT, pH 7.5; calibrated with the Bio-Rad gel filtration standard

Molecule: rhIE1(36-395), core domain of rhesus cytomegalovirus IE1, lysine-methylated (domain or fragment)
- stoichiometry N [1]: 2

B1: hIE1_(CORE)(14-382), recombinant (domain or fragment)
chain: PDEGPSSKVPRPETPVTKATTFLQTMLRKEVNSQLSLGDPLFPELAEESLKTFEQVTEDCNENPEKDVLAELVKQIKVRVDMVRHRIKEHMLKKYTQTEEKFTGAFNMMGGCLQNALDILDKVHEPFEEMKCIGLTMQSMYENYIVPEDKREMWMACIKELHDVSKGAANKLGGALQAKARAKKDELRRKMMYMCYRNIEFFTKNSAFPKTTNGCSQAMAALQNLPQCSPDEIMAYAQKIFKILDEERDKVLTHIDHIFMDILTTCVETMCNEYKVTSDACMMTMYGGISLLSEFCRVLCCYVLEETSVMLAKRPLITKPEVISVMKRRIEEICMKVFAQYILGADPLRVCSPSVDDLRAIAEESDEEE
notes: also called hIE1(14-382); source: E. coli BL21(DE3), purified (glutathione sepharose, PreScission cleavage, SEC)
- binding result [2]: binds
